What all share (experiment): fluorescence polarisation; competition: serial dilution of peptide from 500 μM against 20 nM TAMRA-HA for 100 nM HLA-DRB1 protein with 20 nM HLA-DM; 100 mM trisodium citrate pH 5.4, 50 mM NaCl, 5 mM EDTA; 37 °C, read after 24, 48 and 72 h
The target in assay [1] is HLA-DRB1*01:01 protein (human).
The target of assay [2] is HLA-DRB1*04:01 protein (HLA-DRA*01:01/HLA-DRB1*04:01) (human).
The target of assay [3] is HLA-DRB1*04:04 protein (human).
Assay [4] deals with HLA-DRB1*04:05 protein (human).
Assay [5] concerns the target HLA-DRB1*14:02 protein (human).

Where no end group is shown, it is not given here. [ ]: non-standard residue; d: D form. Cit = NC(=O)NCCC[C@H](N)C(=O)O A value given as a limit tells only on which side of the number the result lay.

For orientation: IC50 means the concentration that gives 50% inhibition.

Take D[Cit]Y[Cit]LNYSLPTG [TNC1014,1016cit peptide]: the IC50 is 800 nM in assay [1], 1100 nM in assay [2], > 300000 nM in assay [3] and 1300 nM in assay [5]. In assay [4], the fold weaker affinity against HLA-DRB1*01:01, *04:01 and *14:02 was > 4 fold.

Source of the values: paper PMC12269843, “The molecular basis of T cell receptor recognition of citrullinated tenascin-C presented by HLA-DR4” (The Journal of Biological Chemistry, 2025).
